The record followed here is a protein production outcome set (Wang et al. 2014).
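Note: failed if final PepcDB status was selected cloned or expressed and not failed if soluble or beyond.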

A short description of this series: label from the status in PepcDB records.
As for “MNEPLSSLELLPEEEGGANLTYFAFAAPTASAPDLPAVLPGPLPDVLSGRYRLERMLGAGGMGTVYRARDLLHEQFGDPAPLVALKLLNESVAESPDASALLYSEFALTRRLRHPNVVRLFTFDVDTACQRAYIVMELMPGLPLDRLLCERPEGLPWSELSAIARPLLDVLAYVHEQGVLHGDLKPSNVMLGEEGVRLFDFGLGQAQAGILDGLPQLSRGRIDAWTPGYAAPELLEGAPLSPAADLYALACVLYELADGRHPFRRLPSNQAREQGLERQLRAPRHLPRRCWPALRTALSLDPERRCIGVRELQEALGARRSWLAGVLAR”, the protein production result is on record as “failed”.
Then “MSLKKVLLCVGNELRGDDGVAIALGRLVEEQMPEWSVFFGYDTPESEFGKLRELAPDVIVVADAMSGFKEGEIEFLDLSDERTYLYSTHNLPTPILISYLRGICSKTIFLGISVLLENVLHFSEGLSQGASDSAFVALGRIKELDGMLKEGHHHHHH”, with “not failed”; and “MIIPGIAAAETCPDGYKNVSVCKAEKMVEKEDVFLLDVRTPAEFNKTHIEGTILIPVKNVPAQDPVELSSDELLEVRINEVPADEKILVYCKSGARSAAACSLLVSNGYRKVYNMRGGIDCWLARGCTVDVNADKADELLGTGEFFLLDVRTPAEFNAGYIEGAILIPLKNVPKEDPVELPPEKLLAQCLCEIPENKPILVYCKSGTRSDAARDLLVDSGYRHVYNLEGGILTWKAEGYPTVCPAI”, with “failed”; and “MLNALKNRLRVWYDPEMKAIARIIREMNSKGGDDLVVTECNKVFVDRLRVFPIALKMDFWEHHFELEGFSDFPEIGGDILDFGCGSGHLDVYLARRGFTVTGVDLSPVGIAIASFIRENEAADVKKRLLFFVADVTADLPPRQFDAAWSAHVFEHIKNPGPVLAGLKNWIKPGGSLLISVPFGRAYDDPGHVNHFYSEADLQHYLGGHISVERIKIYRDHQVIRALCKNDGDGKNDR”, with “failed”.
Then “ERKRREKRLEETSSRLEALFENSPDMIDVLDADGTICEVNQRFCAELGYDESEVLGRSIWEFDLMFDAEDVQTQLSGFSVDERRKFEGLYERRDGSTMSVEVHLLRFNLEGEDRFLAISRDIT”, with “not failed”; and “MKKYIKPSAILLTLILSACSETKTVQQLISSGNSFVQVRDFSSAVIEFKNAVRLEPKNANARFELGNAYLEQGNFVNAEKEFSRAVELGLDFSNIAALMARVNTHLDKADEVYQLVERSDELTDDDYVEVLTYAGITALKQNRISQGQDYLTQAIVINPDAAYSRIAQAYVHYADREFSQGIVVISNLLNEKTDATEAMLIQGHLYYAQQEFEHASGAFALYLNYHPQDHKIRFFEVNSLIKAEKFEQANVITNTLLKAFKDSSLALQFKAQLEYQKKNYSAARDYAEEALQHGQDFLGAKIIAGVSSYFLGDVEQAYTKLNGIVERVPNNLLVKKILAVTKFELGYYADAAENFSSLEGLTSADLQLLKSSSASLMGIGYVDNALSLINKAEEFSPDNAQVAAQKGLMLLSQNDISGINSMKRAVELDPSLTYVQVALAIGYLNIGEENKAQKIADLYKDKIDEADVGHVLEGFIYLNNKQSANAQVSFEKALSLNPKNIASLYNLGLLHKRAAENSKAIIYFDRLIALSPEHKGALKSLVSIAVNKEYLEEVLTILVRNHQTDNLYSIIALAQVLRIDQQVAKAVTTLGGIDKSVKLTSNYFMLLGDSYLELEKYLKANAIFEQGLALEPKDYLLNIRYISTLEWLGDYTAALDQTRRLHKYYPNNINITTSLIYLEVRNKNYQEAKYLLEAIKGQKSNHHQLDAIAGEIYSYEKDYPQAIEHFSVVYEKEPTELNLLNLARTLGFDKQNKQAERLLELYLDKNPNNSKIRFLLAELYNPQDRKKRVVQYQVLSTQIPNNAIVFNNLAWNQFKLKQTAEALINIEKAYQLQPDSLAIQESYGVILIANNKLSQGINILESAILSGSTDAAAKEYLIKAKTLLNNQGKSSG”, with “failed”; and “MLAVIEKQGNEYVVQFERYFSYSIEEVWSVLTENSKLKKWMSNLQIESLKTGGIIKFDMMDGSFINIDILECQVNAVLEFTWDKDCVRFEIHKEENDTLLLLKEYIHELTDHTPKDIAGWHICLDLFSSVLEGKEKEFSKDEWKQWFEIYKDKVLELRA”, with “failed”.
Then “MEDLLPTLPSLDHRDALPNALASPVLPAGQSDAQLVRTWLDTKYAAGLGIRASTRAQYALEAHRLLWYAHALGRPLASWQVADANGYLAFLADPPAHAVGDGRVRQDSPAWRPLRGPLSEASRRQTATIVGGLFEWLVGVEALRVNPFQAVPRARSARGPGSQRRFLEAEQLAAVFDAVEARPAPTLWAQLHKARDRLLLALLFHTGLRASEVTALTWPDFERQRGRHGDFWTVRIREAKGGSDQLVPCDNVMAELARFRQLVGLSPEPRATDTMAVVPAMAGGRQRLAPLTDTLALQRRLSRPVRTRQGLYTIVRQVFEAAAVRLEASGYAEGAANLRAASTHWLRHSHATHLLRAGVPVTDVQRTLRHRDINTTRRYTHEALEDVARSIGGKLPAVLEHHHHHH”, with “failed”.
As for “DVTEQKQAEAELHQRDRLLQAVAEAANWLVVEMNYDTAIEKALAVVGEAAQADRAYLFKNHPHPITGKRAVSLQFEWYGSDLQPSIQDWQNQLYQSTELSRWYSVLSSGKSINELRRKLPVAERELLERQGIQSLLLVPLGLEDQFWGYLGLADCTQERYWSRHEESTLLTMAASISGAWQRQQVEEKIRYQALHDL”, the protein production entry is “not failed”.
Take “MDALIMAGGKGTRMGGVEKPLIKLCGRCLIDYVVSPLLKSKVNNIFIATSPNTPKTKEYINSAYKDYKNIVVIDTSGKGYIEDLNECIGYFSEPFLVVSSDLINLKSKIINSIVDYFYCIKAKTPDVEALAVMIPKEKYPNPSIDFNGLVPAGINVVSPKHGYQKEEIMVIDELIFNINTKDDLKLAEMLLKKDGL”: the protein production entry is reported as “failed”.
For “MKYTQSFCFVSVIVLSSSVHLHGQNNKMNVLLIIADDMRPELGCYGIEDIVTPRLDSLARYATVFQNAYCNIPVSGASRASLFTGMYPRYPNRFTAFDASAEKDCPEALSLPECFKKNGYYVVSNGKVFHNITDHADSWSEAPWRVHPDGYGKDWAEYNKWELWQNEESSRYVHPKTLRGPFCESADVADTTYIDGRVAQKTIADLRRLHKKEKPFFLACGFWKPHLPFNAPKKYWDLYRREEIHLAQNPYRPKALPKQVTSSGEIRGYGKFVTTKDETFQREAKHGYYACVSYIDAQIGLILDELDRLGLSENTIVVILGDHGWHLGEHGFWGKHNLMNHATRAPLIVRVPHCRGGKAKGIVEFVDIYPTLCELCGVPMPKDQLQGKSFVPILQDSGKKTKQYAFIQWKGGYNIVSEQYSSTIWLQGDSVVARMIFDRQLDASENENKVHCPYLSRERDKLEAQIKIRKSQLLEHHHHHH”, the protein production result is “failed”.
Then “MPLLQKRVIVSNKREKVINDRRSRQQTVTPAGSEMRYEASFRPENGGLEVVFRLDAPQYHALSVGDRGMLSYKGTAFVAFTPDPLEHHHHHH”, with “not failed”.
For “MKQPATPNAAEETKSEQKQKSKKFPTPTELISHYQKRGLEPAEASIKVIEDLQNALVRVVSSSRNASSKDKLVTDARKIDAINGRLAVVDAKLETKPGYVETFALGLASGATLNGISAVWPHVTRGIGQIWSAVRIGTDPSSTS”, the protein production entry is on record as “failed”.
Then “MDWFSWLSRTNLEASLIYEYGLSFSNNELEYEDIAYFNHEFLQSMGISIAKHRLEILKLARRDRKPSPLTARSIFRVLIAIKKTGKCFSEHVRAWIRREESSRALVVVSRSTSSSGNGRWKSARKKRLVMPSNGNGVKEERLLLTNGTPCRLDSFSNPKVSSGYEDDDNHWGNKDVEEKIKWDSMFQNLKPT”, with “failed”; and “MKAKAILLASVLLVGCQTSQNTGNVQQHAQSLSAAGQGEAGKFTSQARWMDDGTSIAPDQDLWAFIGDELKMGIPENSRIREQKQKYLRNKSYLHDVTLRAEPYMYWIAGQVKKRNMPMELVLLPIVESAFDPHATSGANAAGIWQIIPSTGRNYGLKQTRNYDARRDVVASTTAALDMMQRLNKMFDGDWLLTVAAYNSGEGRVMRAIKANKARGKPTDFWSLSLPRETKLYVPKMLALSEILKNSKRYGVRLPTTDESRALARVRLNSPVEMAQVADMAGMSISKLKTFNAGVKGSTLGVSGPQYVMVPKKHAEQLRESLASGEIDAVQSQLIADNTPLNSRSYKVRSGDTLSGIASRLGVSTKDLQQWNNLRGSRLKIGQSLTVGAGSSAQRLANNSDSITYRVRKGDSLSSIARRHGVNIKDVMRWNHDTDNLQPGDQLTLFVKDNSTPDSLEHHHHHH”, with “not failed”; and “MKINPRVIYLSIVFIFLVIMASNVAVADDLEAEKLTKVASNVALDSNPVWSPDGKEILFSRENGLYKVFSDGTGEMKLTSTKGKNFTSDYAWSPDGSKISYIENRYDTAAGPRSDLWIMNSNGEGKKQLLDTIWYRYYYIYTWFPTGSKILYAEIYEEIGGSYWEMDSDGSNKHNIGNMGIANGIALSPDASKIAICAHGPADVDYYIDVGKVGKDLTSFRYGLITHQTQSRQSQIWAPDGSKIVYYAGKNESYYEDENSEIYIVKADGTGRIQLTSDSANDNSPVFSPDGSKIVFVSDKAGNEDIWIMDADGKNKVQLTSDPASDSFPVWSPDGKKIAFWSNRGGNNNIYTLTLENEKTPVAAFCASQTSGNAPLKVSFTDKSTGTPTSWSWSFGDGKTSTLKNPLHIYSKAGKYTVSLTVKNAAGTNMKTITKYITVKTAPVKPIAAFSASPGSGKTPLKVKFTDTSTGTPTAWRWNFGDGSKSFLQNPIHKYSKTGIYTVDLTVKNAAGRNTVTKTDYITVVTKPVAEFSATPTTGKLPLTVEFTDKSTGVPTGWIWSFGDGTISREQNPKHQYLQEGKYKIILSVTNVAGSSTIKKINYIRVTTNTRPRIL”, with “failed”.
Consider “MDLPITLSKETPFEGEEITVSARVTNRGAAEAHNVPVAVYLGNPAQGGVEIGRDTISRIPVGGTGLARVQWKATRKLAGRAANPGVPVYAVVDPDNRVAESDKANLEHHHHHH”, for which the protein production entry was “not failed”.
Then “MDKYLRLLSQGDRLGLTLIRLSIAIVFIWIGLLKFVPYEADSITPFVANSPFMSFFYEHPEEYRQHLTHEGELKPEERAWQTANNTYAFSDGLGVVELIIAALVLANPVSRWLGLAGGVLAFLTPFVTLSFLITTPEVWVMPLGDAHYGFPYLSGAGRLVLKDTLMLAGAVMIMADSARSLLLQRQ”, with “failed”.
Then “MSLHTSHVIPAPRIDVWEWHTRPGAVFRLTPPFLPLRPLEQATSLAKGTTVFALPAGLRWEARHDLSGYIQHHRFTDVCINAPVKSLASWRHIHDFTDHPSGTLITDTVHTRAPRTTLSPAFAYRQHQLINDIQAQQRFYELTRSNPTESTPLTIGLTGSRGLVGRALTAQLTTLGHTVVQLVRGESKPHQRHWDPAHPAPNLLEGLDALIHLAGEPILGRFNDAHKADIRDSRIEPTRQLSQLVQKSSTCRTMVSASAIGYYGHARGDEILDEGSTQGDDFLASVCEEWEAASRTDATSNKRIVNIRTGVVMSGRGGMLPVLKAVFSVGLGGPFRGSNPWMSWIAIDDLCDIYIRAVLDPKLSGAINAVAPNPIKNQDFVDALAKELKRPAKMTISSLGPAILLGQQGAKELALADQRVQPRVLNNLDHHFRYVDIRSCLAHELGGENLLDI”, with “failed”.
Then “MDYSQFLYMKEELSLIAVILILFVVDLLTCPDQKGATPKVNVRSLTLPAVILMTLHTVINLFPGTPAEAFGGMYQYTPMQTIIKAVLNVGTIIVLLMAHEWLKREDTRIKQGEFYVLTLSTLLGMYFMISAGHFLMFFIGLEMASIPMAALVAFDKYRHHSAEAGAKYILTALFSSALLLFGLSMIYGTSGTLYFNDLPGHITGNMLQIMAFVFFFAGMGFKISLVPFHLWTADVYEGAPTAVTSYLSVISKGSAAFVLMTILMKVFAPMVAQWQEVLFWVTIASITIANLFAIRQQNLKRFMAFSAISQAGYIMLGVIGGSEMGMTALVYYVLVYLAANLGVFAVISIVEQRSNKVEIDDYNGLYKTNPKLAFIMTLALFSLAGIPPFAGFFSKFFIFMAAFNSGFHLLVFIALINTVVSLYYYLLIVKAMYINPNEEPIPTFRSDNYTKVSLVLCTLGIIALGIASCIYQGIDKFSFGMGM”, with “failed”.
